B1: mAb 278 (antibody, V domains shown)
VH: QVQLVQSGAEVKKPGASVKVSCKASGYIFIRYGISWVRQAPGQGLEWMGWISANNGYTNYAQKLQGRVTMTTDTSTSTAYMELRSLRSDDTAVYYCARDGGILTGYLDYFDHWGQGTLVTVSS
VL: DIQMTQSPSSLSASVGDRLTITCRASQSIASYLNWYQQKPGKAPKLLIYAASSLQSGVPSRFSGSGSGTDFTLTISSLQPEDFATYHCQQSYSTLGITFGPGTKVDIK
notes: copies: 2 + 2
B2: mAb 222 (antibody, V domains shown)
VH: EVQLVESGGGLIQPGGSLRLSCAASGLTVSSNYMSWVRQAPGKGLEWVSVIYSGGSTFYADSVKGRFTISRDNSKNTLYLQMNSLGAEDTAVYYCARGEGSPGNWFDPWGQGTLVTVSS
VL: DVVMTQSPGTLSLSPGERATLSCRASQSVPSSYLAWYQQKPGQAPRLLIYGASTRATGIPDRFSGSGSGTDFTLTISRLEPEDFAVYYCQHYDTSPRFGGGTKVDIK
notes: copies: 2 + 2
B3: mAb 316 (antibody, V domains shown)
VH: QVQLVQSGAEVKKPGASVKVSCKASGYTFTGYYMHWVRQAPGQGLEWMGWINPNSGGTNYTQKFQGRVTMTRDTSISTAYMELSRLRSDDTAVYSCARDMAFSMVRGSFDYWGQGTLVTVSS
VL: QAVLTQPPSASGSPGQSVTISCTGTSSDVGGYNYVSWYQQHPGKAPKLMIYEVSKRPSGVPDRFSGSKSGNTASLTVSGLQAEDEADYYCSSYAGSNHWVFGGGTKLTVL
notes: copies: 2 + 2
B4: REGN10987 (antibody, V domains shown)
VH: QVQLVESGGGVVQPGRSLRLSCAASGFTFSNYAMYWVRQAPGKGLEWVAVISYDGSNKYYADSVKGRFTISRDNSKNTLYLQMNSLRTEDTAVYYCASGSDYGDYLLVYWGQGTLVTVSS
VL: QSALTQPASVSGSPGQSITISCTGTSSDVGGYNYVSWYQQHPGKAPKLMIYDVSKRPSGVSNRFSGSKSGNTASLTISGLQSEDEADYYCNSLTSISTWVFGGGTKLTVL
notes: source: provided by AstraZeneca; copies: 2 + 2
B5: mAb 88 (antibody, V domains shown)
VH: QLQLQESGPGLVKPSQTLSLTCTVSGGSISSGSYNWTWIRQPAGKGLEWIGRIYNSGSTNYNPSLKSRVTISVDTSKNQLSLKVRSVTAADTAVYYCARHCSGGTCYPKYYYGMDVWGQGTTVTVSS
VL: QSALTQPPSVSEAPRQRVTISCSGSSSNIGNNAVNWYQQFPGKAPKLLIYYDDLLPSGVSDRFSGSKSGTSASLAISGVQSEDEADYYCAAWDDSLNVVVFGGGTKLTVL
notes: copies: 2 + 2

target: T1, His-tagged SARS-CoV-2 RBD T478K (SARS-CoV-2, Wuhan-Hu-1 RBD with T478K, T478K); test: BLI; settings: both partners purified
T1 construct: not shown: His6, N-terminal, kept

With B1 as the binder, how does the Kd read?
The Kd was 1.5 nM.

With B2 as the binder, how does the Kd read?
The Kd was 0.2 nM.

How did the Kd turn out when B3 was run?
Its Kd is 0.69 nM.

With B4 as the binder, how does the Kd read?
Its Kd is 0.35 nM.

B5 was tested. Which Kd did it give?
The Kd was 2.4 nM.

Reference: PMC8218332 (Cell, 2021)
